Measured values: publication doi:10.1101/2020.12.15.422916
Values belong to the substance of their own block, whether it stands above or below them.

What was measured:
[1] = target: C99-derived hexameric Aβ42 (cell-derived, from CHO cells transfected with C99) (human) (UniProt P05067); assay: SDS-PAGE and western blot of SDS-stable assemblies
[2] = target: C99-derived hexameric Aβ42 (cell-derived, from CHO cells transfected with C99) (human) (UniProt P05067); assay: GELFrEE 8100 electrophoretic fractionation with western blot
[3] = target: assembly-impaired variant of Aβ42 from CHO cells transfected with vC42 (F19S, G37D) (human); assay: SDS-PAGE and western blot of SDS-stable assemblies
[4] = target: hexameric Aβ from CHO cells transfected with C99 carrying the Arctic (E22G) FAD mutation (human); assay: SDS-PAGE and western blot of SDS-stable assemblies
[5] = target: hexameric Aβ from CHO cells transfected with C99 carrying the Dutch (E22Q) FAD mutation (human); assay: SDS-PAGE and western blot of SDS-stable assemblies
[6] = target: hexameric Aβ from CHO cells transfected with C99 carrying the Flemish (A21G) FAD mutation (human); assay: SDS-PAGE and western blot of SDS-stable assemblies
[7] = target: hexameric Aβ from CHO cells transfected with C99 carrying the Iowa (D23N) FAD mutation (human); assay: SDS-PAGE and western blot of SDS-stable assemblies
[8] = target: hexameric Aβ from CHO cells transfected with C99 carrying the Italian (E22K) FAD mutation (human); assay: SDS-PAGE and western blot of SDS-stable assemblies

Substance: hexameric Aβ from CHO cells transfected with C99 carrying the Arctic (E22G) FAD mutation (peptide)
stoichiometry N [4]: 6

Substance: hexameric Aβ from CHO cells transfected with C99 carrying the Flemish (A21G) FAD mutation (peptide)
stoichiometry N [6]: 6

Substance: hexameric Aβ from CHO cells transfected with C99 carrying the Italian (E22K) FAD mutation (peptide)
stoichiometry N [8]: 6

Next, values leading:

stoichiometry N [1]: 6
stoichiometry N [2]: 6
Substance: C99-derived hexameric Aβ42 (cell-derived, from CHO cells transfected with C99) (from UniProt P05067 672-770) (peptide)

stoichiometry N [3]: 2
Substance: assembly-impaired variant of Aβ42 from CHO cells transfected with vC42 (F19S, G37D) (peptide)

stoichiometry N [5]: 6
Substance: hexameric Aβ from CHO cells transfected with C99 carrying the Dutch (E22Q) FAD mutation (peptide)

stoichiometry N [7]: 6
Substance: hexameric Aβ from CHO cells transfected with C99 carrying the Iowa (D23N) FAD mutation (peptide)
